Assay in all cases: SPR, IL-33 amine-coupled to CM5, Fab in solution, 37 C
Test [1] deals with T1, human IL-33 (mm2) (human, UniProt O95760 112-270).
T1 construct: Variant in which all four cysteine residues are serine; the entry carries an N-terminal Met and a C-terminal His6; Biotinylated in some assays; also called hIL-33 (mm2); huIL-33 (mm2)
T1 chain: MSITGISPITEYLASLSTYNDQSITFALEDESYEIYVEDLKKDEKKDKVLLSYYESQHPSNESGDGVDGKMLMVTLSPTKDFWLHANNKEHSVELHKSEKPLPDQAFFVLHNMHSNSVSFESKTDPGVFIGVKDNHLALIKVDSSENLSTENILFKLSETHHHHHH
As for the experimental part: (§1) Biacore kinetic assays were conducted at 37° C. at a collection rate of 1 Hz on a Biacore T200 instrument (GE Healthcare). Human IL33 (mm2), cynomolgus monkey IL-33, and reduced huIL33 wt were covalently coupled to a CM5 sensor chip (catalogue number BR100530, GE Healthcare) using an amine coupling kit (catalogue number BR100050, GE Healthcare) according to the manufacturer's protocol. […] The dilution and running buffer was HBS-EP+(10 mM HEPES pH 7.4, 0.15M NaCl, 3 mM EDTA, 0.05% P-20). Rate constants and affinities were determined by fitting the resulting sensorgram data to a 1:1 model in Biacore T200 Evaluation software version 1.0 (GE Healthcare).

Test [2] has as its target T2, cynomolgus monkey IL-33 (cys mut) (cynomolgus monkey).
T2 construct: Variant in which the three cysteine residues are serine; N-terminal Met and C-terminal His6 in the entry; also called cyno IL-33; cyno IL-33 (cys mut)
T2 chain: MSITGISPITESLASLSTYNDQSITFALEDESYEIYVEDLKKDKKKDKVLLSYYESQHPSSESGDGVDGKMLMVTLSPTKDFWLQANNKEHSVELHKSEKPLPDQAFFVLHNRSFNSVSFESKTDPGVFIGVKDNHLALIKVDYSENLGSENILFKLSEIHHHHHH
As for the experimental part:
as §1

Test [3] addresses T3, human IL-33 WT, reduced with DTT (human, UniProt O95760 112-270).
T3 construct: Wild-type cysteines, FLAG tag in the entry; reduced with 3 mM DTT before use; also called huIL33 wt; hu IL-33 (WT + DTT)
T3 sequence: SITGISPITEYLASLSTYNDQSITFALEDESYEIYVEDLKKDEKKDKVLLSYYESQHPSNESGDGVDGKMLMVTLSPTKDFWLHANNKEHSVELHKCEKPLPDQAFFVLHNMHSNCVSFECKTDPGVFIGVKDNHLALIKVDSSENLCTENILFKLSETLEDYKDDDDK
As for the experimental part: as §1

B1: 7E8 CDR graft Fab (Fab, V domains shown)
VH: EVQLVESGGGLVQPGGSLRLSCAASGFTFSSYWMYWVRQAPGKGLEWVASITPNGGNTYYPDSVKGRFTISRDNAKNSLYLQMNSLRAEDTAVYYCARGHYYYTSYSLGYWGQGTLVTVSS
VL: DIQMTQSPSSLSASVGDRVTITCKASQNINKHLDWYQQKPGKAPKLLIYFTNNLQTGVPSRFSGSGSGTDFTLTISSLQPEDFATYYCFQYNNGWTFGGGTKVEIKR
notes: also called 7E8 Fab; CDR grafted-7E8 Fab
Turning to B1, in test [1], binding was characterised by a dissociation constant (Kd) of 0.0155 nM, the koff (usually the first-order rate constant of dissociation) is 4.17e-05 s⁻¹ and the kon (usually the rate constant with which the complex forms) was found to be 2.74e+06 M⁻¹ s⁻¹. Moreover, in test [2], the affinity, expressed as Kd, was 0.0144 nM; the koff came out at 4.07e-05 s⁻¹; the kon was determined as 2.81e+06 M⁻¹ s⁻¹. Also, in test [3], binding was characterised by a dissociation constant (Kd) of 0.0191 nM, the off-rate (koff) is 5.79e-05 s⁻¹ and the kon was 3.05e+06 M⁻¹ s⁻¹.

Values taken from patent US20180037644A1 (Pfizer, published 2018).
